The values that follow are results of earlier work, collected in PMC8894873.

In the series the target is Glu35 (UniProt position 53, CAAKFESNFNT). As to the kind of experiment: not stated (a cited reference title indicates two-dimensional 1H NMR).

On to “Lysozyme (lysozyme C, presumably hen egg-white) (Gallus gallus (inferred; the article says only 'lysozyme'))”, for which the pKa is given as 6.3.
